# Laboratory results reported in US20150329642A1 (Genmab, published 2015).
# Substitutions are numbered along the chain they refer to.
# B1: anti-c-Met HuMab 005 (IgG1) (antibody, V domains shown)
# VH: QVQLVQSGAEVKKPGSSVKVSCKASGGTFSSYGFGWVRQAPGQGLEWMGRISPILGIANYAQMFQGRVTITADKSTSTAYMELSSLRSEDTAVYYCARDVGYDWPDTFDIWGQGTMVIVSS
# VL: DIQMTQSPSSLSASVGDRVTITCRASQGISSWLAWYQQKPEKAPKSLIYAASSLQSGVPSRFSGGGSGTDFTLTISSLQPEDFATYYCQQYNSFPPTFGQGTKVEIK
# notes: also called TH1016-005; PC1016-005
# B2: IgG1-1016-022 (antibody, V domains shown)
# VH: QVQLVESGGGVVQPGRSLRLSCAASGFTFSSYAMHWVRQAPGKGLEWVAVISYDGSNKYYADSVKGRFTISRDNSKNTLYLQMNSLRAEDTAVYYCARELLWFGELWGYFDLWGRGTLVTVSS
# VL: B1 VL with L11V, Q38H, E41G, S46L, G65S, Q90E, Y91A, N92S, P95T, P96W
# notes: also called TH1016-022; PC1016-022
# B3: anti-c-Met HuMab 006 (IgG1) (antibody, V domains shown)
# VH: B1 VH with Y32F, F34I, S52F, I57T, S84T, W104S, P105A, T107A, I118T
# VL: B1 VL with G65S, F94Y
# notes: also called TH1016-006; PC1016-006
# B4: IgG1-024 (antibody, V domains shown)
# VH: EVQLLESGGGLVQPGGSLRLSCVASGFTFSSYAMSWVRQAPGKGLEWVSAISGSSGGSTYYVDSVKGRFTISRANSKNTLYLQMNSLRAEDTAVYYCAKDLDRGWMGYFGYWGQGTLVTVSS
# VL: DIQMTQSPSSVSASVGDRVTITCRASQGISSWLAWYQHKPGKAPKLLIYAASSLQSGVPSRFSGSGSGTDFTLTISSLQPEDFATYYCQQANSFPTFGQGTRLEIK
# notes: also called TH1016-024; PC1016-024
# B5: anti-c-Met HuMab 008 (IgG1) (antibody, V domains shown)
# VH: EVQLVQSGAEVKKPGESLKISCKGSGYSFTSYWIGWVRQMPGKGLEWMGIIYPGDSETRYSPSFQGQVTISADKSISTAYLQWSSLKASDTAMYYCARQEITGEFDYWGQGTLVTVSS
# VL: AIQLTQSPSSLSASVGDRVTITCRASQGISSALAWYQQKPGKAPKLLIYDASSLESGVPSRFSGSGSGTDFTLTISSLQPEDFATYYCQQFNSYPRTFGQGTKVEIK
# notes: also called TH1016-008; PC1016-008
# Molecular target: T1, cMetECDHis (human, UniProt P08581 25-932, limits assumed, biotinylated in the cross-block ELISA of Example 17)
# T1 construct: Expressed in HEK-293F cells; also called soluble cMetECDHis; biotinylated cMetECDHis
# Test: cross-block ELISA; competitor G11-HZ
# Procedure: (§1) First, the optimal coating concentrations of the tested anti-c-Met antibodies and the optimal cMetECDHis concentration were determined. Therefore, ELISA wells were coated overnight at 4° C. with anti-c-Met HuMabs serially diluted in PBS (8 μg/mL in 2-fold dilutions). Next, the ELISA wells were washed with PBST (PBS supplemented with 0.05% Tween-20 [Sigma-Aldrich, Zwijndrecht, The Netherlands]) and blocked for one hour at room temperature (RT) with PBSTC (PBST supplemented 2% [v/v] chicken serum [Gibco, Paisley, Scotland]). Subsequently, the ELISA wells were washed with PBST and incubated for one hour at RT with biotinylated cMetECDHis serially diluted in PBSTC (1 μg/mL in 2-fold dilutions). Unbound biotinylated cMetECDHis was washed away with PBST, and bound biotinylated cMetECDHis was incubated for one hour at RT with 0.1 μg/mL Streptavidin-poly-HRP (Sanquin, Amsterdam, The Netherlands) diluted in PBST.
# (§2) ELISA wells were coated with anti-c-Met antibody at a sub-optimal dose as described above. After blocking of the ELISA wells, they were incubated with the predetermined concentration of biotinylated cMetECDHis in the presence of an excess of anti-c-Met antibody. The reaction was developed as described above. Residual binding was expressed as a percentage relative to the binding observed in the absence of competitor antibody.
row,"residual binding, % of no competitor [%]",Binder
1,76.8,B1
2,85.9,B2
3,54,B3
4,98.2,B4
5,2.7,B5

# Molecular target: T1, cMetECDHis
# Test: cross-block ELISA; competitor 098
# Procedure: as §1, §2
row,"residual binding, % of no competitor [%]",Binder
1,110,B1
2,105,B2
3,111,B3
4,10.4,B4
5,107,B5

# Molecular target: T1, cMetECDHis
# Test: cross-block ELISA; competitor 022
# Procedure: as §1, §2
row,"residual binding, % of no competitor [%]",Binder
1,4.9,B1
2,3.8,B2
3,4.6,B3
4,100,B4
5,82.1,B5

# Molecular target: T1, cMetECDHis
# Test: cross-block ELISA; competitor 069
# Procedure: as §1, §2
row,"residual binding, % of no competitor [%]",Binder
1,124,B1
2,99.6,B2
3,124,B3
4,2.9,B4
5,104,B5

# Molecular target: T1, cMetECDHis
# Test: cross-block ELISA; competitor 058
# Procedure: as §1, §2
row,"residual binding, % of no competitor [%]",Binder
1,3.6,B1
2,5.8,B2
3,3.6,B3
4,103,B4
5,40.8,B5

# Molecular target: T1, cMetECDHis
# Test: cross-block ELISA; competitor 005
# Procedure: as §1, §2
row,"residual binding, % of no competitor [%]",Binder
1,7.7,B1
2,37.9,B2
3,11.3,B3
4,98.4,B4
5,63.9,B5

# Molecular target: T1, cMetECDHis
# Test: cross-block ELISA; competitor 035
# Procedure: as §1, §2
row,"residual binding, % of no competitor [%]",Binder
1,84.9,B1
2,92.4,B2
3,67.5,B3
4,108,B4
5,32.9,B5

# Molecular target: T1, cMetECDHis
# Test: cross-block ELISA; competitor 068
# Procedure: as §1, §2
row,"residual binding, % of no competitor [%]",Binder
1,129,B1
2,104,B2
3,129,B3
4,12,B4
5,112,B5

# Molecular target: T1, cMetECDHis
# Test: cross-block ELISA; competitor 024
# Procedure: as §1, §2
row,"residual binding, % of no competitor [%]",Binder
1,114,B1
2,99.4,B2
3,113,B3
4,5.4,B4
5,103,B5

# Molecular target: T1, cMetECDHis
# Test: cross-block ELISA; competitor 181
# Procedure: as §1, §2
row,"residual binding, % of no competitor [%]",Binder
1,131,B1
2,107,B2
3,124,B3
4,7.1,B4
5,111,B5

# Molecular target: T1, cMetECDHis
# Test: cross-block ELISA; competitor 5D5
# Procedure: as §1, §2
row,"residual binding, % of no competitor [%]",Binder
1,2.9,B1
2,4.2,B2
3,3.1,B3
4,95.5,B4
5,32.4,B5

# Molecular target: T1, cMetECDHis
# Test: cross-block ELISA; competitor 062
# Procedure: as §1, §2
row,"residual binding, % of no competitor [%]",Binder
1,118,B1
2,99.4,B2
3,119,B3
4,2.3,B4
5,100,B5

# Molecular target: T1, cMetECDHis
# Test: cross-block ELISA; competitor 045
# Procedure: as §1, §2
row,"residual binding, % of no competitor [%]",Binder
1,117,B1
2,95.7,B2
3,114,B3
4,98.1,B4
5,100,B5

# Molecular target: T1, cMetECDHis
# Test: cross-block ELISA; competitor 064
# Procedure: as §1, §2
row,"residual binding, % of no competitor [%]",Binder
1,118,B1
2,102,B2
3,122,B3
4,2.3,B4
5,107,B5

# Molecular target: T1, cMetECDHis
# Test: BLI (Octet); antibody captured, cMetECDHis in solution
# Procedure: Antibody binding to cMetECDHis was analyzed by means of Bio-Layer Interferometry (BLI) technology on the Octet System (Fortebio, Menlo Park, USA). Anti-human IgG coated biosensors (Fc-specific) were used to capture anti-c-Met antibodies according to the procedure recommended by the manufacturer. cMetECDHis derived from HEK293 cells was loaded on top of the immobilized anti-c-Met antibodies by placing the loaded biosensor into a well containing 10 μg/mL cMetECDHis diluted in 10 times diluted kinetics buffer (Fortebio). The difference in reflection of light (AA, nm) of the biosensor surface due to the binding of cMetECDHis was measured in real time during approximately 10 minutes and was used by the Octet software (V4.0, Fortebio) to calculate the association constant (kₐ [1/M×s]). Next, the loaded biosensor was placed into a well containing only kinetics buffer (10 times diluted in PBS) to determine the dissociation constant (kd [1/s]). Kinetics analysis was performed to determine the affinity (KD [M]) using model 1:1 (langmuir). As a positive control, 0.2 μg/mL 5D5 IgG1 produced in HEK293 cells, was used.
Kd [nM],koff [s⁻¹],kon [M⁻¹ s⁻¹],Binder
7.92,0.00252,318000,B1
1.06,0.000251,236000,B2
9.89,0.0042,425000,B3
1.57,0.000228,145000,B4
5.12,0.00157,308000,B5

# Molecular target: T1, cMetECDHis
# Test: cross-block ELISA; competitor 008
# Procedure: as §1, §2
row,"residual binding, % of no competitor [%]",Binder
1,81.9,B1
2,94.1,B2
3,58.8,B3
4,104,B4
5,5.4,B5

# Molecular target: T1, cMetECDHis
# Test: cross-block ELISA; competitor 006
# Procedure: as §1, §2
row,"residual binding, % of no competitor [%]",Binder
1,18.2,B1
2,60.5,B2
3,14.6,B3
4,101,B4
5,47.3,B5
